Test results published in doi:10.1101/495473 (bioRxiv, 2018).

Target: the molecule itself
Assay: SEC

B1: Plasmodium berghei phosphoglycolate phosphatase (PbPGP) (enzyme, P. berghei, UniProt A0A509AU59 1-322, looked up)
chain: MSLIVSEASQNNYFKDSENSYNSFMKEWKIEKRVNVKDLYQNFEVFFFDCDGVLWRGDTVINGAIEVINKLISDNKKVYFITNNSTKSRDTLLGKFHKLGFTCVKKEHIICTSYAIAKYFHSKEEYKSRKKKIYVIGEKGICDELDALNLVWLGSYKDNDKKVIIQDEGEIQIDNNIGAVVVAIDFNINYYKIQYAQLCINGLDAEFIVSNKDPLANFTSNQQWAGTGSIVASIEQVSFKKPKVLGKPNLFMIESVLKSLNIDLSKVVMIGDRLDTDIFFAQNCKIKSILVSTGVTDANVFLNHNNLNIKPDYFMKSILEFL
Which “stoichiometry N” value does the source give for B1 here?
The value was 2.
